Laboratory results: PMC4330359, “DNA-mediated cooperativity facilitates the co-selection of cryptic enhancer sequences by SOX2 and PAX6 transcription factors”

Experiments:
[1] = molecular target: Sox2-HMG long (109 aa);Pax6-PRD R44Q (mouse;mouse?, UniProt P48432;P63015 41-149;4-130, |R44Q); assay: EMSA; cooperativity not affected by R44Q; EMSA: 10 mM Tris-HCl pH 8.0, 0.1 mg/ml BSA, 50 uM ZnCl2, 100 mM KCl, 10% glycerol, 0.1% IGEPAL CA-630, 2 mM 2-mercaptoethanol, 1-2 h, gel at 4 C, 100-300 nM DNA; NMR: 50 mM K phosphate, 100 mM NaCl, pH 7.0, 298 K; conditions: protein: recombinant;recombinant; tags: ;; copies: 1;1; label: 5'-FAM or 5'-Cy5; blunt
Sequence of Sox2-HMG long (109 aa);Pax6-PRD R44Q (P48432 41-149, chain 1 of 2): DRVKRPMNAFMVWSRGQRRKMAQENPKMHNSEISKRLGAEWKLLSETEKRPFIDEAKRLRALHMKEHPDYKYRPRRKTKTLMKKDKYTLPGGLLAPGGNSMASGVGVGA
Sequence of Sox2-HMG long (109 aa);Pax6-PRD R44Q (P63015 4-130 R44Q, chain 2 of 2): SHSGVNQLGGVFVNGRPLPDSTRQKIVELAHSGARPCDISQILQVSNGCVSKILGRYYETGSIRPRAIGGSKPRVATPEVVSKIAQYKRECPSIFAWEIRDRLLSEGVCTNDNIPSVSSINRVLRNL

[2] = molecular target: Sox2-HMG long (109 aa);Pax9-PRD (mouse;mouse?, UniProt P48432;P47242 41-149;4-130, |); assay: EMSA; cooperative; EMSA: 10 mM Tris-HCl pH 8.0, 0.1 mg/ml BSA, 50 uM ZnCl2, 100 mM KCl, 10% glycerol, 0.1% IGEPAL CA-630, 2 mM 2-mercaptoethanol, 1-2 h, gel at 4 C, 100-300 nM DNA; NMR: 50 mM K phosphate, 100 mM NaCl, pH 7.0, 298 K; conditions: protein: recombinant;recombinant; tags: ;; copies: 1;1; label: 5'-FAM or 5'-Cy5; blunt
Sequence of Sox2-HMG long (109 aa);Pax9-PRD (P48432 41-149, chain 1 of 2): as the sequence (P48432 41-149, chain 1 of 2) above
Sequence of Sox2-HMG long (109 aa);Pax9-PRD (P47242 4-130, chain 2 of 2): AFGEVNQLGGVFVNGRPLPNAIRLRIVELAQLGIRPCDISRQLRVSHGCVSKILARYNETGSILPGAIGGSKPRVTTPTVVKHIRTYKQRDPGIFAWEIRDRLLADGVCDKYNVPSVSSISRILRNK

[3] = molecular target: Sox2-HMG long (109 aa);Pax2-PRD (mouse;mouse?, UniProt P48432;P32114 41-149;15-141, |); assay: as above; conditions: protein: recombinant;recombinant; tags: ;; copies: 1;1; label: 5'-FAM or 5'-Cy5; blunt
Sequence of Sox2-HMG long (109 aa);Pax2-PRD (P48432 41-149, chain 1 of 2): as the sequence (P48432 41-149, chain 1 of 2) above
Sequence of Sox2-HMG long (109 aa);Pax2-PRD (P32114 15-141, chain 2 of 2): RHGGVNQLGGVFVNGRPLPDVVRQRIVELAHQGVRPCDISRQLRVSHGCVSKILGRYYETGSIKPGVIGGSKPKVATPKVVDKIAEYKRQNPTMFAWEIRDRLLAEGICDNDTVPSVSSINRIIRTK

[4] = molecular target: Sox2-HMG long (109 aa);Pax3-PRD (mouse;mouse?, UniProt P48432;P24610 41-149;34-161, |); assay: as above; conditions: protein: recombinant;recombinant; tags: ;; copies: 1;1; label: 5'-FAM or 5'-Cy5; blunt
Sequence of Sox2-HMG long (109 aa);Pax3-PRD (P48432 41-149, chain 1 of 2): as the sequence (P48432 41-149, chain 1 of 2) above
Sequence of Sox2-HMG long (109 aa);Pax3-PRD (P24610 34-161, chain 2 of 2): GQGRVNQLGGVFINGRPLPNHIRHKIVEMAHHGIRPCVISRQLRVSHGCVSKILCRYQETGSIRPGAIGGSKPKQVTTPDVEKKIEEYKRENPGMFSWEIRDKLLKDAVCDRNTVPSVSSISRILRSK

[5] = molecular target: Sox2-HMG long (109 aa);Pax8-PRD (mouse;mouse?, UniProt P48432;Q00288 41-149;9-135, |); assay: as above; conditions: protein: recombinant;recombinant; tags: ;; copies: 1;1; label: 5'-FAM or 5'-Cy5; blunt
Sequence of Sox2-HMG long (109 aa);Pax8-PRD (P48432 41-149, chain 1 of 2): as the sequence (P48432 41-149, chain 1 of 2) above
Sequence of Sox2-HMG long (109 aa);Pax8-PRD (Q00288 9-135, chain 2 of 2): as the sequence (P32114 15-141, chain 2 of 2) above, with R1G, V5L, V11A, D20E, E28D, K64R, D82E, A85G, E86D, I108V counted along it

Sox2-HMG long (109 aa) [6] = molecular target: T1, Sox2-HMG long (109 aa) (mouse, UniProt P48432 41-149); assay: EMSA; binary Sox2-DNA complex prominent; EMSA: 10 mM Tris-HCl pH 8.0, 0.1 mg/ml BSA, 50 uM ZnCl2, 100 mM KCl, 10% glycerol, 0.1% IGEPAL CA-630, 2 mM 2-mercaptoethanol, 1-2 h, gel at 4 C, 100-300 nM DNA; NMR: 50 mM K phosphate, 100 mM NaCl, pH 7.0, 298 K; conditions: protein: recombinant; label: 5'-FAM or 5'-Cy5; blunt
T1 sequence (P48432 41-149): as the sequence (P48432 41-149, chain 1 of 2) above

Sox2-HMG long (109 aa) [7] = molecular target: T1, Sox2-HMG long (109 aa); assay: NMR; 1:1.2 Sox2:DC5; EMSA: 10 mM Tris-HCl pH 8.0, 0.1 mg/ml BSA, 50 uM ZnCl2, 100 mM KCl, 10% glycerol, 0.1% IGEPAL CA-630, 2 mM 2-mercaptoethanol, 1-2 h, gel at 4 C, 100-300 nM DNA; NMR: 50 mM K phosphate, 100 mM NaCl, pH 7.0, 298 K; conditions: protein: recombinant; blunt

B1: DC5 (dsDNA)
DNA 1: AAATATTCATTGTTGTTGCTCACCTACCATGGATCC
DNA 2: GGATCCATGGTAGGTGAGCAACAACAATGAATATTT
[1]
  binding result: binds
[2]
  binding result: binds
[3]
  binding result: binds
[4]
  binding result: binds
[5]
  binding result: binds

B2: DC5con (dsDNA)
DNA 1: AAATATTCATTGTTGATGTTCACGCATCATGGATCC
DNA 2: GGATCCATGATGCGTGAACATCAACAATGAATATTT
Sox2-HMG long (109 aa) [6]
  binding result: binds

B3: DC5 31-mer (NMR) (dsDNA)
DNA 1: TTCATTGTTGTTGCTCACCTACCATGGATCC
DNA 2: GGATCCATGGTAGGTGAGCAACAACAATGAA
Sox2-HMG long (109 aa) [7]
  binding result: binds
